Article PMC12302720 (The Journal of Biological Chemistry, 2025)
Each block holds one binder with its values, some of them ahead of it.

Assays:
[1] = biological target: T1, extracellular domain of human CD47 (HuCD47 ECD) (human, UniProt Q08722); assay: ELISA; plates coated with 1 ug/ml HuCD47 ECD or CyCD47 ECD in 0.1 M PBS; serially diluted antibodies, 37 °C, 2 h; bound antibody detected with anti-human Fc HRP; settings: both partners purified
T1 construct: human CD47 extracellular domain, amino acids Gln1-Pro121; source: bought: Acro Biosystems; not shown: His6, C-terminal, kept

[2] = biological target: T1, extracellular domain of human CD47 …; assay: BLI; Octet Red96; 5 ug/ml antibody held on anti-human IgG-Fc biosensors; 2-fold dilutions of HuCD47 ECD or CyCD47 ECD in 1 x PBS, 0.1% BSA, 0.02% Tween-20; 1:1 Langmuir global fit; apparent Kd; settings: both partners purified
[3] = biological target: T2, extracellular domain of cynomolgus CD47 (CyCD47 ECD) (Macaca fascicularis, UniProt A0A2K5X4I2); assay: as above; settings: both partners purified
T2 construct: cynomolgus CD47 extracellular domain; source: bought: Acro Biosystems

[4] = biological target: T3, extracellular domain of cynomolgus CD47 (CyCD47 ECD) (cynomolgus); assay: ELISA
T3 chain: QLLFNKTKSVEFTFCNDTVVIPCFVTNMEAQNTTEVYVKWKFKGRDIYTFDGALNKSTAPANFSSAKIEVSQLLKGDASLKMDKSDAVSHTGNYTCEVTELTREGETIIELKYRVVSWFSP

B1: H3L2, humanized variant of 1C8 (antibody, V domains shown)
VH: QSVKESGGGLFQPGGSLRLSCSVSGFSLSSYAISWVRQAPGKGLEYIGYISSIGDPYYADWVKGRFTISRDSSTVYLQMTSLRAEDTAVYFCARSYPGNGDLGRLDIWGQGTTVTVSS
VL: DPQLTQSPSFVSASVGDRVTITCRSSQSVYRNKYLSWYQQKPGKAPKLLIYYASTLASGVPSRFSGSGSGTEFTLTISSVQPEDAATYYCAGDYSDDIENAFGQGTKVEIK
binding result [1]: binds

B4: Hu5F9-G4, humanized mouse anti-human CD47 antibody (antibody, V domains shown)
VH: QVQLVQSGAEVKKPGASVKVSCKASGYTFTNYNMHWVRQAPGQRLEWMGTIYPGNDDTSYNQKFKDRVTITADTSASTAYMELSSLRSEDTAVYYCARGGYRAMDYWGQGTLVTVSS
VL: DIVMTQSPLSLPVTPGEPASISCRSSQSIVYSNGNTYLGWYLQKPGQSPQLLIYKVSNRFSGVPDRFSGSGSGTDFTLKISRVEAEDVGVYYCFQGSHVPYTFGQGTKLEIK
EC50 [4]: 0.04 µg/mL

Next, values leading:

binding result [1]: binds
B2: H4L2, humanized variant of 1C8 (antibody, V domains shown)
VH: QSVKESGGGLFQPGGSLRLSCSVSGFSLSSYAISWVRQAPGKGLEYIGYISSIGDPYYADWVKGRFTISRDNSKNTVYLQMTSLRAEDTAVYFCARSYPGNGDLGRLDIWGQGTTVTVSS
VL: DPQLTQSPSFVSASVGDRVTITCRSSQSVYRNKYLSWYQQKPGKAPKLLIYYASTLASGVPSRFSGSGSGTEFTLTISSVQPEDAATYYCAGDYSDDIENAFGQGTKVEIK

fold lower binding affinity than 1C8 [2]: 3 fold | binding result [3]: binds
B3: H4L3, humanized variant of 1C8 (antibody, V domains shown)
VH: QSVKESGGGLFQPGGSLRLSCSVSGFSLSSYAISWVRQAPGKGLEYIGYISSIGDPYYADWVKGRFTISRDNSKNTVYLQMTSLRAEDTAVYFCARSYPGNGDLGRLDIWGQGTTVTVSS
VL: DPMLTQSPSFLSASVGDRVTITCQSSQSVYRNKYLSWYQQKPGKAPKLLIYYASTLASGVPSRFSGSGSGTEFTLTISSLQPEDFATYYCAGDYSDDIENAFGGGTKVEIK
